The values below come from IntAct's records for PubMed 12829691.

B1: E3 ubiquitin-protein ligase CBL-B (Homo sapiens), Q13191 (parent)
chain: MANSMNGRNPGGRGGNPRKGRILGIIDAIQDAVGPPKQAAADRRTVEKTWKLMDKVVRLCQNPKLQLKNSPPYILDILPDTYQHLRLILSKYDDNQKLAQLSENEYFKIYIDSLMKKSKRAIRLFKEGKERMYEEQSQDRRNLTKLSLIFSHMLAEIKAIFPNGQFQGDNFRITKADAAEFWRKFFGDKTIVPWKVFRQCLHEVHQISSGLEAMALKSTIDLTCNDYISVFEFDIFTRLFQPWGSILRNWNFLAVTHPGYMAFLTYDEVKARLQKYSTKPGSYIFRLSCTRLGQWAIGYVTGDGNILQTIPHNKPLFQALIDGSREGFYLYPDGRSYNPDLTGLCEPTPHDHIKVTQEQYELYCEMGSTFQLCKICAENDKDVKIEPCGHLMCTSCLTAWQESDGQGCPFCRCEIKGTEPIIVDPFDPRDEGSRCCSIIDPFGMPMLDLDDDDDREESLMMNRLANVRKCTDRQNSPVTSPGSSPLAQRRKPQPDPLQIPHLSLPPVPPRLDLIQKGIVRSPCGSPTGSPKSSPCMVRKQDKPLPAPPPPLRDPPPPPPERPPPIPPDNRLSRHIHHVESVPSRDPPMPLEAWCPRDVFGTNQLVGCRLLGEGSPKPGITASSNVNGRHSRVGSDPVLMRKHRRHDLPLEGAKVFSNGHLGSEEYDVPPRLSPPPPVTTLLPSIKCTGPLANSLSEKTRDPVEEDDDEYKIPSSHPVSLNSQPSHCHNVKPPVRSCDNGHCMLNGTHGPSSEKKSNIPDLSIYLKGDVFDSASDPVPLPPARPPTRDNPKHGSSLNRTPSDYDLLIPPLGEDAFDALPPSLPPPPPPARHSLIEHSKPPGSSSRPSSGQDLFLLPSDPFVDLASGQVPLPPARRLPGENVKTNRTSQDYDQLPSCSDGSQAPARPPKPRPRRTAPEIHHRKPHGPEAALENVDAKIAKLMGEGYAFEEVKRALEIAQNNVEVARSILREFAFPPPVSPRLNL

The variants in this assay derive from B1. Particulars: with sh3k1_human SH3KBP1, Q96B97.
Sequence of sh3k1_human SH3KBP1, Q96B97 (Q96B97 whole entry): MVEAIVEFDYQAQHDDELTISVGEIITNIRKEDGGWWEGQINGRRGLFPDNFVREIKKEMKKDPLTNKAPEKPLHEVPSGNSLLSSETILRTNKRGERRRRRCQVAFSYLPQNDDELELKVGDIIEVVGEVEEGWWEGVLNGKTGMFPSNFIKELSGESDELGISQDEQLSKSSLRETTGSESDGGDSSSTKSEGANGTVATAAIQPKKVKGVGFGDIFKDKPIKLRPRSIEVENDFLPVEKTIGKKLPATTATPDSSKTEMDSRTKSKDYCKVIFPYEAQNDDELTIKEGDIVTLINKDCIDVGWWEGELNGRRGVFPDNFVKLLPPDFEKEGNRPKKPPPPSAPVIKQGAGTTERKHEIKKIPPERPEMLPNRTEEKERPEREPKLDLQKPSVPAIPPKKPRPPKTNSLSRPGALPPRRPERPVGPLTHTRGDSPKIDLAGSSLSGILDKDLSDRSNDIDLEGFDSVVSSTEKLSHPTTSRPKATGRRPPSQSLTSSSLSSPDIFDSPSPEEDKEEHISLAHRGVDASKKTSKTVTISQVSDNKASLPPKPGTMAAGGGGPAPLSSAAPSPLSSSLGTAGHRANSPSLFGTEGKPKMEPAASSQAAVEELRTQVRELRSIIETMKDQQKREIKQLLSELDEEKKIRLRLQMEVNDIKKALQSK
For R911A, the “effect of a mutation on the interaction” value is listed as “decreasing interaction”.
